Substrate in the data set: O=[N+]([O-])c1ccc(O[C@@H]2O[C@@H](CO)[C@H](O)[C@H]2O)cc1
Kind of data set: purified protein. It is filed as biochemical, Evansstolkia leycettana. To be noted: 0.1 M McIlvaine buffer pH 3.5, 55 °C, 5 min, 0.1–5 mM substrate.

B1: TlAbf51 (Evansstolkia leycettana) (protein)
chain: MKTLPALAGGLAVAVTYLSGLAFAIDLTVSKTGGNASSPLLYGIMFEDINNSGDGGIHGQLLKNNGFQGNNPGLTAYAAVGNVTLSQDTSNPLSSAITSSLKVSVPPGTTGYVGFANTGYAGVPVVATTYANYFWMKGKYSGTINLRLVGTSSGIVYASHNITVHSTDSQFTYYDTSFTSSASPDGNNEWQLLFDGSQVAGSSLNFGLVQLFPPTYHSRYNGLRNDVASFLEEIKPSFLRFPGGNNLEGASPADRWKWNATIGPVVDRPGRQGDWGYPNTDALGLDEYLYWCEDMGMEPVLAVWSGLSLGGGIVSGSALDPYVDDIMNELEYLLGDMSTAGGRLRAQNGRTEPWPIKHVEVGNEDNLSSGCGTYASRFTQIYNAIHAAYPDITVIASTTDASCLPSSILEGVITDIHHYLNPDQFVALFNEWDNWPRTHPIFVGEYASTHNSDGSQTYWTRMRGSCGEAVYMIGMERNSDIVKMASYAPLLEHFNLAEWSPDLFGLDSSPDSITGSTSYYVQKMFSTNRGSTILPVTSDAGFGPVYWVASVSGSTYYVKLANYGSASETVTINIDGTKSGTLEMLSGAEMGSNYPHNVTITPQTSSVSGSGSFTVTMPAWAVAVLAVS
notes: secreted from Pichia pastoris GS115 (pPIC9, EcoRI/NotI), purified
The term Km denotes the concentration of substrate that gives half-maximal velocity. Broadly, the kcat is the number of substrate molecules converted per active site and unit of time at saturation. For B1, the Km stood at 280 ± 10 µM and the kcat amounted to 1600 s⁻¹.
